Data from article PMC3466254, “Cthrc1, a Novel Circulating Hormone Regulating Metabolism” (PLoS ONE, 2012).

Target: the molecule itself
Test: non-reducing SDS-PAGE with autoradiography; 1 µl of plasma of Cthrc1 null mice taken 30 min after intra-arterial injection of purified 125I-Cthrc1; SDS-PAGE under non-reducing conditions, autoradiography

B1: rat Cthrc1 with a C terminal myc/6×His tag, labeled with 125I (natural protein, UniProt Q8CG08 33-245, looked up)
chain: SENPKVKQKALIRQREVVDLYNGMCLQGPAGVPGRDGSPGANGIPGTPGIPGRDGFKGEKGECLRESFEESWTPNYKQCSWSSLNYGIDLGKIAECTFTKMRSNSALRVLFSGSLRLKCRNACCQRWYFTFNGAECSGPLPIEAIIYLDQGSPELNSTINIHRTSSVEGLCEGIGAGLVDVAIWVGTCSDYPKGDASTGWNSVSRIIIEELPK
modifications: labeled with 125I (iodination tubes); residues not stated
notes: Cthrc1 (collagen triple helix repeat containing 1), rat; secreted into the conditioned medium; also called 125I-Cthrc1; 125I-labeled Cthrc1
B1: binds.
